“And” between values parts separate entries of the source, which are not always exact repeats. Identical values can stand only once. “Also recorded” adds a separate entry of the source. Starred links: 1 amine or outer side, 2 acyl side, 3 side chain; linkers in the order of their positions; H or OH if unused. Non-standard residues stand in square brackets, D forms with d. Residues, ends and D or L forms follow the SMILES beside them. ξ: configuration not given here. *: point of attachment. GluureaLys(ε-3-ClBenzyl) = O=C(O)CC[C@H](NC(=O)N[C@@H](CCCCN(Cc1cccc(Cl)c1)*)C(=O)O)C(=O)O; Dolaproine = CO[C@@H]([C@@H]1CCCN1)[C@@H](C)C(=O)O; Dil = CC[C@H](C)[C@H](NC)[C@@H](CC(=O)O)OC; X1 = O=C(CCCc1cn(CCCN[*:1])nn1)[*:2]; PABC = O=C(OCc1ccc(N[*:1])cc1)[*:2]; X2 = C[C@@H](N*)[C@@H](O)c1ccccc1; Cit = NC(=O)NCCC[C@H](N)C(=O)O; Suc = O=C(CCC(=O)[*:2])[*:1]; NMeV = CN[C@H](C(=O)O)C(C)C; ξV = CC(C)C(N)C(=O)O; Ahx = NCCCCCC(=O)O
Key:
Type in all cases: in vivo
[1] = Chronic toxicity study, intravenous once every 3 weeks, rabbits
Excerpt: Chronic toxicity study of Conjugate (1) product on Rats and rabbits.
• 1. Conjugate (I). • 2. Solubilizer Pluronic F127—in the amount, five-fold greater than the conjugate amount by weight. • 3. Diluent—Haemodes infusion solution. • 4. Dimethyl sulfoxide—in the amount of 5% of the prepared volume.
A 1 00 white ° inbred mature male rats about 2 months old with a body weight of 190-210 g and 60 sexually mature male rabbits of the Soviet Chinchilla breed about 2 months old with a body weight of […] were involved in the experiment.
The study design determined the intravenous administration of the test drugs once every 3 weeks for 3 months (a total of 4 injections) for the experiment of chronic toxicity determination. The local irritant effect of the products within intravenous administration will be studied together with the chronic toxicity study.
Each animal received the intravenous injection of the test drug or the reference drug in a volume not exceeding the acceptable volume for a single injection of 2 mL for rats and 20 mL for rabbits. The products were replaced with a Pluronic solution with DMSO in Haemodes in the control group of animals. The duration of observation for laboratory animals was 4 weeks (intermediate stage).
Apparent signs of intoxication were evaluated daily. During the study, integral indicators of animal health were recorded (see Tables 15. 16, 17).

Melanoma B16 = assay: Antineoplastic activity on melanoma B16 model (tumor growth inhibition); details: for Tumor volume, Mean / TGI %: B16, 1.0 mg/kg; for TGI %: vs TGC; for Tumor volume (individual tumors): s.c. B16 melanoma, 1.0 mg/kg i.p. x3, 1 mg/kg
Experimental: Melanoma B16-30 days after the first product administration (the product administration was started 48 hours after revaccination) and it was administered 3 times intraperitoneally in 5 days,
• 1. Group 1—diluent (placebo) • 2. Group 2—intraperitoneal Conjugate (I) administration in a dose of 1 mg/kg 3 times:
Experimental animals of control group (TGC) were administered with the diluent (DMSO+Haemodes) of similar Volume (placebo product). The measurement of tumor node was performed three times (on. Day 1, 4 and 8 after treatment completion), The antineoplastic activity was determined according to the standard parameters: tumor growth inhibition TGI (>50%). The survival observation was continued up to 30 days (Table 3).

[2] = Acute toxicity study, single intravenous administration, mice
Excerpt: Acute toxicity study of Conjugate (I) product on mice and rats.
• 1. Conjugate (I). • 2. Solubilizer Pluronic F127—in the amount, five-fold greater than the conjugate amount by weight. • 3. Diluent Haemodes infusion solution. • 4. Dimethyl sulfoxide—in the amount of 5% of the prepared volume.
The experiment took white outbred male mice aged about 2 months with body weight of 19-21,g, and also white outbred mature male rats aged about 2 months with body weight 190-210 g.
Acute toxicity study was performed within the intravenous administration. Before the start of the experiment to determine an acute toxicity, the animals were deprived of food and water (mice were deprived for 2 hours, rats—for 10-12 hours), and then weighed. Then each animal received the intravenous drug injection according to the study design, in a volume not exceeding the acceptable single injection volume: 0.5 mL for mice, 2 mL for rats, and fractionally if necessary. The control group of animals received Pluronic solution in Haemodes in the proportion used fort dose preparation of 78 mg/kg for mice and 38 mg/kg for rats. The duration of observation for laboratory animals was 14 days. During this period, visible signs of intoxication were assessed (see Table 9).

[3] = male rabbits, group 7, 81 μg/kg intravenously 1 time in 3 weeks
[4] = male rabbits, group 8, 102 μg/kg intravenously 1 time in 3 weeks

## CC[C@H](C)[C@@H]([C@@H](CC(=O)N1CCC[C@H]1[C@H](OC)[C@@H](C)C(=O)N[C@H](C)[C@@H](O)c1ccccc1)OC)N(C)C(=O)[C@@H](NC(=O)[C@H](C(C)C)N(C)C(=O)OCc1ccc(NC(=O)[C@H](CCCNC(N)=O)NC(=O)C(NC(=O)CCCc2cn(CCCNC(=O)[C@H](Cc3ccc(O)cc3)NC(=O)[C@H](Cc3ccccc3)NC(=O)CCC(=O)NCCCCCC(=O)N(CCCC[C@H](NC(=O)N[C@@H](CCC(=O)O)C(=O)O)C(=O)O)Cc3cccc(Cl)c3)nn2)C(C)C)cc1)C(C)C (some centres unmarked) [Conjugate (I)] ({GluureaLys(ε-3-ClBenzyl)-Ahx-Suc}-FY[X1][ξV][Cit][PABC][NMeV]V[Dil][Dolaproine]-X2)
[1]; [3]
  Necropsy: None
  Signs of intoxication: No signs of intoxication
[1]; [4]
  Necropsy: None
  Signs of intoxication: No signs of intoxication
[1]; male rabbits, group 9, 122 μg/kg intravenously 1 time in 3 weeks
  Necropsy: None
[1]; male rabbits, group 9, 122 μg/kg, after administration
  Signs of intoxication: the intake of food and water: decreased.
[1]; rabbits, chronic
  Main observed toxic effect: decreased body weight gain
[1]; rabbits, i.v. once every 3 weeks, intermediate stage 4 weeks
  Chronic toxicity (overall): moderate toxicity
Melanoma B16; day 1
  Tumor volume, Mean: 66 mm^3
  TGI %: 75%
Melanoma B16; day 4
  Tumor volume, Mean: 433 mm^3
  TGI %: 62%
  Tumor volume (individual tumors): 768 mm^3 and 364 mm^3 and 476 mm^3 and 220 mm^3 and 544 mm^3 and 525 mm^3 and 120 mm^3 and 448 mm^3
Melanoma B16; day 8
  Tumor volume, Mean: 898 mm^3
  TGI %: 61%
  Tumor volume (individual tumors): 1,030 mm^3 and 855 mm^3 (2×) and 1,045 mm^3 and 675 mm^3 and 1,144 mm^3 and 972 mm^3 and 560 mm^3
Melanoma B16; day 1 after treatment
  Tumor volume (individual tumors): 135 mm^3 and 72 mm^3 and 64 mm^3 (2×) and 48 mm^3 and 90 mm^3 and 36 mm^3 and 16 mm^3
[2]; male mice, 3 mg/kg, Day 5
  Body weight dynamics, M ± SD: −13.2 ± 5.1 % of initial body weight
[2]; male mice, 3 mg/kg, Day 5, listed as test drug, 3 mg/kg
  Body weight dynamics (individual animals): −6.3 % of initial body weight and −19.0 % of initial body weight and −15.4 % of initial body weight and −22.1 % of initial body weight and −11.0 % of initial body weight and −11.4 % of initial body weight and −13.3 % of initial body weight and −13.8 % of initial body weight and −5.6 % of initial body weight and −13.9 % of initial body weight
[2]; male mice, 3 mg/kg, Day 10
  Body weight dynamics, M ± SD: 9.9 ± 11.7 % of initial body weight
[2]; male mice, 3 mg/kg, Day 10, listed as test drug, 3 mg/kg
  Body weight dynamics (individual animals): 0.0 % of initial body weight and 16.8 % of initial body weight and 18.8 % of initial body weight and −9.1 % of initial body weight and 18.6 % of initial body weight and 16.3 % of initial body weight and 13.8 % of initial body weight and 17.9 % of initial body weight and 18.9 % of initial body weight and −9.9 % of initial body weight
[2]; male mice, 3 mg/kg, Day 14
  Body weight dynamics, M ± SD: 29.1 ± 9.1 % of initial body weight
[2]; male mice, 3 mg/kg, Day 14, listed as test drug, 3 mg/kg
  Body weight dynamics (individual animals): 36.1 % of initial body weight and 30.5 % of initial body weight and 32.7 % of initial body weight and 13.9 % of initial body weight and 34.3 % of initial body weight and 35.1 % of initial body weight and 25.7 % of initial body weight and 35.7 % of initial body weight and 35.2 % of initial body weight and 11.9 % of initial body weight
[2]; male mice, 5 mg/kg, Day 5
  Body weight dynamics, M ± SD: −20.9 ± 7.6 % of initial body weight
[2]; male mice, 5 mg/kg, Day 5, listed as test drug, 5 mg/kg
  Body weight dynamics (individual animals): −27.1 % of initial body weight and −14.3 % of initial body weight and −28.2 % of initial body weight and −23.8 % of initial body weight and −26.1 % of initial body weight and −6.0 % of initial body weight and −22.4 % of initial body weight and −12.0 % of initial body weight and −21.0 % of initial body weight and −27.8 % of initial body weight
[2]; male mice, 5 mg/kg, Day 10
  Body weight dynamics, M ± SD: −4.3 ± 13.0 % of initial body weight
[2]; male mice, 5 mg/kg, Day 10, listed as test drug, 5 mg/kg
  Body weight dynamics (individual animals): −6.7 % of initial body weight and −12.9 % of initial body weight and 1.0 % of initial body weight and −20.8 % of initial body weight and 13.9 % of initial body weight and −18.0 % of initial body weight and 16.8 % of initial body weight and −5.2 % of initial body weight and −6.8 % of initial body weight
[2]; male mice, 5 mg/kg, Day 14
  Body weight dynamics, M ± SD: 20.5 ± 10.5 % of initial body weight
[2]; male mice, all test doses
  Body weight effect (summary): decreased growth rate or decreased body weight regarding the initial one
[2]; male mice, i.v. 3 mg/kg
  Fatality: 0
[2]; male mice, i.v. 5 mg/kg
  Fatality: 1
[2]; male mice, i.v. 6 mg/kg
  Fatality: 3
[2]; male mice, i.v. 7 mg/kg
  Fatality: 10
[2]; male, white outbred, mouse, in vivo, iv, mice, single i.v., read-out: Maximum tolerated dose
  MTD at 14 days: 3 mg/kg
[2]; mice, acute i.v.
  Toxic effect (summary): renal damage, decreased motor activity, dose-dependent hindlimb paresis
[2]; mice, single i.v. 2 mg/kg
  Signs of intoxication: No signs of intoxication
[2]; mice, single i.v. 3 mg/kg
  Signs of intoxication: 3-4 days - general health deterioration, the occurring hindlimb paresis
[2]; mice, single i.v. 7 mg/kg
  Signs of intoxication: 3-4 days - general health deterioration, the occurring hindlimb paresis, decrease movement activity
[2]; mice, single i.v. 8 mg/kg
  Signs of intoxication: 5 days - all animals had disheveled fur, gastrointestinal bleeding, hindlimb paresis. One animal
[2]; mice, single i.v. 9 mg/kg, listed as test drug, 9 mg/kg
  Signs of intoxication: The animals demonstrated a shortness of breath right after administration, the next day - a shortness; also recorded: Days 3 (3), 4 (5), 5 (1), 6 (1)
[2]; mice, single i.v. 30 mg/kg
  Signs of intoxication: All animals were observed with a shortness of breath right after administration, developing
[2]; mice, single i.v. 45 mg/kg, listed as test drug, 45 mg/kg
  Signs of intoxication: All animals were observed with a shortness of breath right after administration, developing; also recorded: died during 12 hours
[2]; mice, single i.v. 60 mg/kg
  Signs of intoxication: All animals were observed with a shortness of breath right after administration, developing
[2]; white outbred, mouse, in vivo, iv, male mice, single i.v., read-out: LD50 (median lethal dose)
  LD50 at 14 days: 6.3 mg/kg

From patent publication US12454527B2, “Conjugate monomethyl auristatin E to obtain a composition for treatment of prostate cancer” (priority 2019, dated 2025)
